The values that follow come from paper PMC5701185, “Evidence for PII with NAGK interaction that regulates Arg synthesis in the microalga Myrmecia incisa in response to nitrogen starvation” (Scientific Reports, 2017).

In test [1] the target is recombinant MiNAGK fused to the His-tag (pET-NAGK) (Myrmecia incisa).
Test [2] has as its target recombinant MiPII fused to the His-tag (pET-PII) (Myrmecia incisa). The test is described as follows: co-IP; purified recombinant MiPII (200 ug) and MiNAGK (400 ug) in 1 mL 50 mM Tris-HCl pH 7.5, 100 mM KCl, with ATP (3 mM) and Mg2+ (6 mM), with or without 2-OG (5 mM); 1 h at room temperature; precipitated with rabbit anti-MiPII polyclonal antibody and protein A Sepharose; SDS-PAGE, Coomassie staining, band intensity by ImageJ.

Test [3] concerns the target T1, MiPII with MiNAGK (Lobosphaera incisa, UniProt A0A2R4H197).
T1 construct: gene glnB; same proteins as P2; effector site on PII (209-aa precursor, 52-aa signal peptide removed, N-terminal His-tag kept, 21-kD band); read-out NAGK activity; with Acetylglutamate kinase, chloroplastic
Nature of the test: hydroxamate-Fe([…]+) NAGK assay, […] nm. It counts as biochemical. The note with it: read-out: half-maximal effective concentration.

For test [4], the target named is T1, MiPII with MiNAGK. The test is described as follows: hydroxamate-Fe([…]+) NAGK assay, […] nm. Conditions: read-out: % inhibition at 1 mM. The format is biochemical.

T1 sequence (A0A2R4H197 53-209): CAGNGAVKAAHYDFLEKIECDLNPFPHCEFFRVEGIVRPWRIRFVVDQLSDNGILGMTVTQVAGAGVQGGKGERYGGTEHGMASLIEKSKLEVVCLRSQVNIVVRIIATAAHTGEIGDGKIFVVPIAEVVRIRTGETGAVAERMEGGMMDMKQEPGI
T1 sequence (A0A2R4H194 60-359 partner): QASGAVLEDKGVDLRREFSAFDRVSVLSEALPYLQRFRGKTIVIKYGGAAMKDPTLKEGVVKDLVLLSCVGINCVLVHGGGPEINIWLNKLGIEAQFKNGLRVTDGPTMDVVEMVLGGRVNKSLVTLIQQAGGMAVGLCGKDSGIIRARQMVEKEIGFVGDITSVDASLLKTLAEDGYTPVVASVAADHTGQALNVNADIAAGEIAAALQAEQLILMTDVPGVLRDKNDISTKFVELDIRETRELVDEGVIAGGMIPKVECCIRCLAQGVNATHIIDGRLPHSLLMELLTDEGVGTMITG
Chain of recombinant MiPII fused to the His-tag (pET-PII) (Myrmecia incisa) (main, as listed by the source): as the sequence (A0A2R4H197 53-209) above
Chain of recombinant MiNAGK fused to the His-tag (pET-NAGK) (Myrmecia incisa) (main, as listed by the source): as the sequence (A0A2R4H194 60-359 partner) above

Regarding “recombinant MiPII fused to the His-tag (pET-PII) (natural protein)”, the specific activity of recombinant MiNAGK with MiPII (10 ug) and Gln (10 mM), 2-OG from 0 to 4 mM; value at 1 mM 2-OG in test [1] was 30%.
Turning to “recombinant MiNAGK fused to the His-tag (pET-NAGK) (enzyme)”, the intensity of the stained MiNAGK band in the precipitate with 2-OG relative to without 2-OG in test [2] stood at 0.65 times.
As to `NC(=O)CC[C@H](N)C(=O)O` [Gln], the EC50 at MiPII with MiNAGK [3] was around 3 mM.
A word on the inhibition: it is the share of the control response that was lost under treatment. Regarding `O=C(O)CCC(=O)C(=O)O` [2-OG], the inhibition at 1000 µM on MiPII with MiNAGK [4] was around 30%.
